From article PMC4315244

Tests used:
[1] = molecular target: Nup82-Flag-TEV-ProtA (S. cerevisiae) (UniProt P40368); assay: AUC + SEC
[2] = molecular target: Nup82 (of the Nup82–Nup159tail–Flag-Nsp1C complex) (S. cerevisiae) (UniProt P40368); assay: SEC-MALS
Chain of Nup82 (of the Nup82–Nup159tail–Flag-Nsp1C complex) (S. cerevisiae) (P40368 whole entry, one chain of several): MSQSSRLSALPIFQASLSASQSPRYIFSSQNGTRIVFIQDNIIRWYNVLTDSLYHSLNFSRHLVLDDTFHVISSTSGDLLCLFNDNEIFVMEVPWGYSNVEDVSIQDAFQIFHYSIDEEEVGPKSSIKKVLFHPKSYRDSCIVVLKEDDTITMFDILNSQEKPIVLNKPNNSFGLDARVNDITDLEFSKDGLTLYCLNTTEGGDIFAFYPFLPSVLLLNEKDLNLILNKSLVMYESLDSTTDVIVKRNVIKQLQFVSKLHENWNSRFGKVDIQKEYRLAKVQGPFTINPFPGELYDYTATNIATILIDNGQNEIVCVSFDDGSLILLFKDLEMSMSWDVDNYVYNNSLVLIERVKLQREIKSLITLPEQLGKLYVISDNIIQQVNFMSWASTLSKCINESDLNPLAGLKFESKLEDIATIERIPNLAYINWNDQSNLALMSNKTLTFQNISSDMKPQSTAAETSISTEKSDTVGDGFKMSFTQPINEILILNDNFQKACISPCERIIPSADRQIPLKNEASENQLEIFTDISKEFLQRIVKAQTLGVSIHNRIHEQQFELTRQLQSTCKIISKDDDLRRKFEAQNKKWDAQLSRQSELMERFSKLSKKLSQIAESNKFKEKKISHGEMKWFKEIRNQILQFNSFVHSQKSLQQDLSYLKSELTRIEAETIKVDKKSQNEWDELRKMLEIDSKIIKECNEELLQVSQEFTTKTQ

Chain of Nup159 tail (domain or fragment) (P40477 whole entry, the tested form may be a part): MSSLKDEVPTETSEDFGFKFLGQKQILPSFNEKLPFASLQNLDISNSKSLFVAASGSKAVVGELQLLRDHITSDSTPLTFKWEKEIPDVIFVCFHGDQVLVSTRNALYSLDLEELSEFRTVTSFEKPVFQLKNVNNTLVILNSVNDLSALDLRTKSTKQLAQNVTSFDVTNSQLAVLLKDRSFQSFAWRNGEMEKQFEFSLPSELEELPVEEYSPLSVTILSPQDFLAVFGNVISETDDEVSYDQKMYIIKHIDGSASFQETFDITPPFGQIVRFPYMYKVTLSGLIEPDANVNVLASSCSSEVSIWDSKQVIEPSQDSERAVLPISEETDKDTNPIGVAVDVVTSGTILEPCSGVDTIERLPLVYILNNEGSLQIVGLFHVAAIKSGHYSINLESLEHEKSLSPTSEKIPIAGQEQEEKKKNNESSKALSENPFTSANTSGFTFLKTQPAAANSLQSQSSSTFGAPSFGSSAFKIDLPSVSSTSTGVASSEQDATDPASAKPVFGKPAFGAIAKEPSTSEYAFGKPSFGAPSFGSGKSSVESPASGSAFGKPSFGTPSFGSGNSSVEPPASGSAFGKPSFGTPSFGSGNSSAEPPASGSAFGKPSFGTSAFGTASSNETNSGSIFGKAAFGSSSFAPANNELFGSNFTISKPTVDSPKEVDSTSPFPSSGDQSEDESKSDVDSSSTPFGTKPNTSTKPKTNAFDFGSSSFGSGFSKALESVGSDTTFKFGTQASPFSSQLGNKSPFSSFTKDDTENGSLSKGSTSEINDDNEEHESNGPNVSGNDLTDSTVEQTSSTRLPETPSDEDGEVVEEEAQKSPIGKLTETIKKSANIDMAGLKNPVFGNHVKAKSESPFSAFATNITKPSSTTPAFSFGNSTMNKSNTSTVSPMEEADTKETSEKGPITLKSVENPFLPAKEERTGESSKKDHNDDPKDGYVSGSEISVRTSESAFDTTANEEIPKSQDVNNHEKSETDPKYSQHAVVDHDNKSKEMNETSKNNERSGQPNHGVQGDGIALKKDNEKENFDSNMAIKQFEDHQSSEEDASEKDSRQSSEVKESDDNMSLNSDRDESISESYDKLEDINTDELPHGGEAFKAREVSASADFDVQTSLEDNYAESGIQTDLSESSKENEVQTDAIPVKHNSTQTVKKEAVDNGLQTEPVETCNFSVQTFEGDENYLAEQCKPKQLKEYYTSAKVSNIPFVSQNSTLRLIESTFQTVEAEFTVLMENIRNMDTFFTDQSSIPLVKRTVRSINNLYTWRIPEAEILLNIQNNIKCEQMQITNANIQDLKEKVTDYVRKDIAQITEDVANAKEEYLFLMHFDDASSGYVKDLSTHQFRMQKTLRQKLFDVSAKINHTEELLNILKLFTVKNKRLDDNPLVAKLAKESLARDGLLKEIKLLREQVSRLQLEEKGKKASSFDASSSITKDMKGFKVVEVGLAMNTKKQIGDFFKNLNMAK
Chain of Nup82-Flag-TEV-ProtA (P40368 whole entry): as the sequence (P40368 whole entry, one chain of several) above

Substance	stoichiometry N [1]	stoichiometry N [2]
Nup82-Flag-TEV-ProtA (from UniProt P40368 1-713) (natural protein; other documents disagree on this pair)	2	
Nup159 tail (domain or fragment)		1
